Test results as given in the supplement of paper PMC10567573.

Assay: protein stability index of a GFP-peptide fusion (GPS, HEK-293T) (PSI 1-6); higher = more stable
Settings: c terminus: native
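Further: lentivirally expressed fusion library, cells FACS-sorted into six equal-sized GFP/DsRed ratio bins, PSI computed from sequencing read fractions per bin weighted by bin number.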

## DGWIRVSSDNVADLHEKYSGSTPE [PSMB5 addE]
parent: NP_002788.1
  protein stability index: 4

## EQRNSRWNTVLRAVKAKTHHLEPE [TRPA1 addE]
parent: NP_015628.1
  protein stability index: 4.66

## CQPISFSGFGAEDDDLGGLGLGPE [POLD2 addE]
parent: NP_006221.1
  protein stability index: 2.57

## HSLRAVSTDPPHHDHHDEFCLMPE [BEX2 addE]
parent: NP_116010.1
  protein stability index: 4.74

## LPALFTDLYSQEITAEEAREALPE [SNF8 addE]
parent: NP_009172.2
  protein stability index: 5.12
